Assay results taken from patent publication US20030114377A1.

Experiments:
[1] = target: soluble CD14 AVEVE deletion mutant (residues 35-39 of SEQ ID NO: 1 deleted) (human) (UniProt P08571); assay: ELISA, mutant CD14 coated, biotinylated mAb; grade = OD as % of wild-type CD14 (++ 51-75%)
[2] = target: soluble CD14 DDED deletion mutant (residues 9-12 of SEQ ID NO: 1 deleted) (human) (UniProt P08571); assay: ELISA, mutant CD14 coated, biotinylated mAb; grade = OD as % of wild-type CD14 (++++ >90%)
[3] = target: soluble CD14 DDED/PQPD double deletion mutant (residues 9-12 and 22-25 of SEQ ID NO: 1 deleted) (human) (UniProt P08571); assay: as above
[4] = target: soluble CD14 DPRQY deletion mutant (residues 59-63 of SEQ ID NO: 1 deleted) (human) (UniProt P08571); assay: as above
[5] = target: soluble CD14 PQPD deletion mutant (residues 22-25 of SEQ ID NO: 1 deleted) (human) (UniProt P08571); assay: ELISA, mutant CD14 coated, biotinylated mAb; grade = OD as % of wild-type CD14 (+++ 76-90%)
[6] = target: soluble CD14 DDED deletion mutant (residues 9-12 of SEQ ID NO: 1 deleted) (human) (UniProt P08571); assay: as above
[7] = target: soluble CD14 DDED/PQPD double deletion mutant (residues 9-12 and 22-25 of SEQ ID NO: 1 deleted) (human) (UniProt P08571); assay: as above
[8] = target: soluble CD14 DPRQY deletion mutant (residues 59-63 of SEQ ID NO: 1 deleted) (human) (UniProt P08571); assay: ELISA, mutant CD14 coated, biotinylated mAb; grade = OD as % of wild-type CD14 (++ 51-75%)
[9] = target: soluble CD14 PQPD deletion mutant (residues 22-25 of SEQ ID NO: 1 deleted) (human) (UniProt P08571); assay: ELISA, mutant CD14 coated, biotinylated mAb; grade = OD as % of wild-type CD14 (+ 11-50%)
[10] = target: soluble CD14 DDED deletion mutant (residues 9-12 of SEQ ID NO: 1 deleted) (human) (UniProt P08571); assay: as above

Row | OD405 as percent of wild-type CD14 OD [1] [%] | OD405 as percent of wild-type CD14 OD [4] [%] | OD405 as percent of wild-type CD14 OD [5] [%] | Substance | also measured
1 | 51 to 75 | > 90 | 76 to 90 | anti-CD14 monoclonal antibody 63D3 | OD405 as percent of wild-type CD14 OD [2]: > 90%; OD405 as percent of wild-type CD14 OD [3]: > 90%
2 | 51 to 75 | – | 76 to 90 | anti-CD14 monoclonal antibody MEM-18 | OD405 as percent of wild-type CD14 OD [6]: 76 to 90%; OD405 as percent of wild-type CD14 OD [7]: 76 to 90%
3 | – | – | – | anti-CD14 monoclonal antibody MO-2 | OD405 as percent of wild-type CD14 OD [8]: 51 to 75%
4 | – | > 90 | – | anti-CD14 monoclonal antibody MY4 | –
5 | – | > 90 | – | anti-CD14 monoclonal antibody UCHM-1 | OD405 as percent of wild-type CD14 OD [9]: 11 to 50%; OD405 as percent of wild-type CD14 OD [10]: 11 to 50%
